In publication doi:10.1101/2023.01.12.523719 (2023):

Molecular target: T1, Myc-tagged NLRP6 (ΔPYD)
T1 chain: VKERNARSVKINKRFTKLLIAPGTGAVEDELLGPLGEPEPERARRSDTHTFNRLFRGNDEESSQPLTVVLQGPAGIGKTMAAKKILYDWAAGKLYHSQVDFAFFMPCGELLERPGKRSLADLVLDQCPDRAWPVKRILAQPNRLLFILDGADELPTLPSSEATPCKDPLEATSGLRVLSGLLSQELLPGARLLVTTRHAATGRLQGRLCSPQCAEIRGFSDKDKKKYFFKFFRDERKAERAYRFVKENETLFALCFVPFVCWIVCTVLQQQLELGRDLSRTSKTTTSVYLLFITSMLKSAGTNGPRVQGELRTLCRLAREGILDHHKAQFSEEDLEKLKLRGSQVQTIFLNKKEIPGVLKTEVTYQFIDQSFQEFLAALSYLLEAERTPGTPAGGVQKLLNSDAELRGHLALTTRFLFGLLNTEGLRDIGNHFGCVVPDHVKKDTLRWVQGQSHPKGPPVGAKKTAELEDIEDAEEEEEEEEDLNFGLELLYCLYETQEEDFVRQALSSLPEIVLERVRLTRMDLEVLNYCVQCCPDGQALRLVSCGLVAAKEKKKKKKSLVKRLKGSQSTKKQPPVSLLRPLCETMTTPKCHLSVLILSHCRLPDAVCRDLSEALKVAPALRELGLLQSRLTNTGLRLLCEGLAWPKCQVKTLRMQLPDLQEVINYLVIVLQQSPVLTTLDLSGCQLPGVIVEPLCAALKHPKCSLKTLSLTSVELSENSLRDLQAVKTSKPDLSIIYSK

B1: FLAG-tagged iTie (natural protein)
chain: MGVFQILMKNKELIPLAFFISVAATGATSFALYALKKTDVVIDRKRNPEPWEMVDPTQPQKLITINQQWKPVEELQKVRRATR
With B1 the Kd was 88 nM.
